Patent US20210101970A1 (Pfizer, published 2021)
Blank lines part the entries; values can stand above or below the binder they belong to.

How the values were obtained:
human CXCR5 [1] = molecular target: T1, human CXCR5 (human, UniProt P32302 1-372); experiment: flow cytometry on Raji cells
T1 construct: also called hCXCR5; C-X-C chemokine receptor type 5
T1 sequence: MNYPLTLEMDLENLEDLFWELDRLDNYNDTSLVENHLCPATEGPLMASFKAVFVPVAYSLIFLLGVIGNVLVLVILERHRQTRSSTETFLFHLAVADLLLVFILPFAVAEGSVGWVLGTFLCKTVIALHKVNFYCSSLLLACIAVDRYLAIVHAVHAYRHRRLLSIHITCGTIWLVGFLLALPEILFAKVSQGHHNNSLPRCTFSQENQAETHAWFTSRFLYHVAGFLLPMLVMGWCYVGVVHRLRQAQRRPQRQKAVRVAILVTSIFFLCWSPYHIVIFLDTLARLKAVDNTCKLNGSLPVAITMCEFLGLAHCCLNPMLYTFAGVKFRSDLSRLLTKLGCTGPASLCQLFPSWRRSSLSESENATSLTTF

human CXCR5 [2] = molecular target: T1, human CXCR5; experiment: cell-based or functional assay
human CXCR5 [3] = molecular target: T1, human CXCR5; experiment: flow cytometry on Raji cells, gMFI titration
Experimental: The apparent affinity of antibody binding to Raji cells was calculated as the EC₅₀ of equilibrium binding titration curves in which the geometric mean fluorescence intensity (gMFI) of the antigen binding population was quantified by flow cytometry and the results are shown in Table 2.

CXCR3 = molecular target: T2, CXCR3 (human, UniProt P49682 1-368); experiment: flow cytometry (GMFI) on fixed CXCR3 cells, chimeric antibody, goat anti-human PE
T2 construct: whole, on cells
T2 sequence (looked up): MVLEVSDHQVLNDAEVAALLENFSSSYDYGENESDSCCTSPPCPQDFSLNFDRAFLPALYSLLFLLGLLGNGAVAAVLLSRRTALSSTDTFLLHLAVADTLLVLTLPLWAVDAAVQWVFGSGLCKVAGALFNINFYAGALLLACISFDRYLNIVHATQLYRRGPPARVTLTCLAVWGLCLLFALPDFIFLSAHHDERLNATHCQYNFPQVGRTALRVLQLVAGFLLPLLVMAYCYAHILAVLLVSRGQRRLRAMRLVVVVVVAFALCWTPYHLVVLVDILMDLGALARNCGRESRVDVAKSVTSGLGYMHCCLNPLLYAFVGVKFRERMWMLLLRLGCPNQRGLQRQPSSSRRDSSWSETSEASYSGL
Experimental: (§1) To determine the specificity of the antibodies for CXCR5, the binding of the antibodies to cells expressing other […] was assessed. Briefly, FlowCellect chemokine receptor cell lines expressing CXCR1, CXCR2, or CXCR3 (EMD Millipore, Billerica, Mass.), and Jurkats (ATCC, Manassas, Va.), which express CXCR4, were stained with 5 μg/ml or 10 μg/ml of each anti-CXCR5 chimeric antibody. The cells were then incubated with goat anti-human conjugated with PE (Southern Biotech, Birmingham, Ala.) prior to analysis by flow cytometry using a FACSVerse Analyzer (BD Biosciences, Franklin Lakes, N.J.).

CXCR1 = molecular target: T3, CXCR1 (human, UniProt P25024 1-350); experiment: flow cytometry (GMFI) on fixed CXCR1 cells, chimeric antibody, goat anti-human PE
T3 construct: whole, on cells
T3 sequence (looked up): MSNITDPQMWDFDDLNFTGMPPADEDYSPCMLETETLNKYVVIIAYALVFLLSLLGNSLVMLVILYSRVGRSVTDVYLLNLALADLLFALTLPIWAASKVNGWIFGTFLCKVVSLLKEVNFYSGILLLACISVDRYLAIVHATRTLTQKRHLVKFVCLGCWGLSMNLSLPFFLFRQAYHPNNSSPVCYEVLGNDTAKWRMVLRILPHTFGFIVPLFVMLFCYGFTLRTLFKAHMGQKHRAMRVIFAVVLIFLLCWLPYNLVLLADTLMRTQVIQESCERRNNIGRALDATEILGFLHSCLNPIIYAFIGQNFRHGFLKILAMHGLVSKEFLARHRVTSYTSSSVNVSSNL
Experimental: as §1

human CXCR5 [4] = molecular target: T1, human CXCR5; experiment: flow cytometry, human PBMC Tfh-like cells
Experimental: The apparent affinity for cell surface CXCR5 of chimeric and humanized CXCR5 fucosylated and afucosylated antibodies was assessed. More specifically, to determine the apparent affinity of chimeric and humanized CXCR5 antibodies to CXCR5-expressing cells, cell binding experiments were performed on human and cynomolgus monkey peripheral blood mononuclear cells (PBMCs) and human tonsillar mononuclear cells (TMCs). The apparent affinity of CXCR5 mab binding to CXCR5+ cells (B cells, bona fide Tfh cells, and circulating Tfh-like cells) was calculated as the EC50 of equilibrium binding titration curves in which the geometric mean fluorescence intensity (gMFI) of the antigen binding population was quantified by flow cytometry.
Following isolation, PBMCs were plated at a density of 1.0×10⁵ cells per well and CD4+ TMCs were plated at a density of 2.0×10⁵ cells per well in isolation buffer (PBS containing 1% FBS and 1 mM EDTA) in 96 well U-bottom plates. The plates were then centrifuged at 1500 rpm for 5 minutes at room temperature. PBMCs and CD4+ TMCs were resuspended in Fluorescence-activated cell sorting (FACS) buffer (PBS containing 1% FBS) containing human crystallized fragment Fc block (2 μL per well; Biolegend) and 4-fold serial dilutions of the antibodies (11-point dilution series, beginning at 5000 ng/mL for PBMCs and 312.5 ng/mL for CD4+ TMCs) and incubated on ice for 2 hours. […]

- EC50 (human CXCR5 [1]): 0.0999 nM
- Ca2+ flux IC50 (human CXCR5 [2]): 3.49 nM
- EC50 (human CXCR5 [3]): 0.21 nM
B1: 2C9 (reference antibody) (antibody, human IgG1, kappa, V domains shown)
VH: EVQLVESGGGLVKPGGSLRLSCAASGFTFSTNAMNWVRQAPGKGLERVARIRSKSNNYATYYADSVKDRFTISRDDSKNTLYLQMNSLKTEDTAVYYCVTMIPFAYWGQGTLVTVSS
VL: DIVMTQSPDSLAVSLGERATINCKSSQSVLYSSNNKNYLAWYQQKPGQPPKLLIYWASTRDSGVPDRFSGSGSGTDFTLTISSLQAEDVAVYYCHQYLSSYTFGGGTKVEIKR
notes: fucosylated

B2: Chimeric 11G2 (antibody, human IgG1, kappa, V domains shown)
VH: EVKLVESGGGLVQPGGSLRLSCATSGFTFTDFYMSWVRQPPGRALEWLGFIRNKANGYTTEYSASVKGRFTISRDNSQSILYLQMNTLRAGDSATYYCVRVYGSTLHYWGQGTILTVSS
VL: DVVVTQSPDSLAVSLGQRATISCRASESVEYHGTSLMHWYQQKPGQPPKLLIYAASNVESGVPARFSGSGSGTDFSLNIHPVEEGDIAMYFCQQSRKVPWTFGGGTKLEIKR
notes: mouse V regions on human IgG1/kappa; also called 11G2 (chimeric)
- binding result (CXCR3): no binding (tested: 5 or 10 µg/ml (not on the sheet))
- binding result (CXCR1): no binding (tested: 5 or 10 µg/ml (not on the sheet))

- EC50 (human CXCR5 [4]): 0.00589 nM
B3: Afucosyl humanized 11G2 154/155 (antibody, human IgG1, kappa, V domains shown)
VH: EVQLVESGGGLVQPGGSLRLSCAASGFTFTDFYMSWVRQAPGKGLEWVGFIRNKANGYTTEYSASVKGRFTISRDNAKNSLYLQMNSLRAEDTAVYYCARVYGSTLHYWGQGTLVTVSS
VL: DIQMTQSPSSLSASVGDRVTITCRASESVEYHGTSLMHWYQQKPGKAPKLLIYAASNVESGVPSRFSGSGSGTDFTLTISSLQPEDFATYYCQQSRKVPWTFGQGTKVEIKR
modifications: afucosylated Fc glycan (Asn297)
notes: also called afucosyl h11G2 XC154/XC155; afucosylated h11G2 VL XC154/VH XC155
